The results in this text go back to patent US20200093909A1 (INSTITUTE FOR RESEARCH IN BIOMEDICINE, published 2020).

Positions count from the first letter of the chain named.

T1: NPDP-peptide (Plasmodium falciparum)
T1 peptide: KQPADGNPDPNANPNKNN

T2: NANP-peptide (Plasmodium falciparum)
T2 construct: CSP repeat peptide coated at 2 ug/mL in ELISA; also called NANP repeat region peptide
T2 peptide: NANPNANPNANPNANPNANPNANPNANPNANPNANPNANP

T3: 22-110-peptide (Plasmodium falciparum)
T3 construct: N-terminal CSP peptide coated at 1 ug/mL in ELISA
T3 peptide: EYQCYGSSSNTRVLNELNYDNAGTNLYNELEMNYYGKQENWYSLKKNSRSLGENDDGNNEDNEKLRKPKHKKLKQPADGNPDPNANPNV

B1: MGU5 (antibody, V domains shown)
VH: QVQLVESGGGVVQPGRSLRLSCAASGFSFSSYGMHWVRQAPGKGLDWVALIWHDGTNKFYTDSVKGRFTISRDNSKDTLFLQMNSLRVEDTAVYYCTKRAGWGDALDIWGQGTMVTVSS
VL: DIQMTQSPSSLSASVGDRVTITCQASQDISNYLNWYQQKPGKAPKLLIYDASNLETGVPSRFSGSGSATDFTLTISSLQSEDIATYYCQQQRIFGGGTKVEIK
B2: MGU8 (antibody, V domains shown)
VH: QVQLVESGGGVVQPGRSLRLSCAAGGFTFSNYGMHWVRQAPGKGLEWVALIWHDGTNKFYADSVKGRFTISRDNSKNTLSLQMDSLTTEDTAIYFCTKRGGWGDGSDIWGQGTMVTVSS
VL: B1 VL with I29V, S30D, Q38H, E55A, A68S, E81D, I83F, K99R
B3: MGG3 (antibody, V domains shown)
VH: QEQLVESGGGVVQPGKSLRLSCAASGFTFSTFGMHWVRQAPGKGLEWVAVIWYDGSSKYHADSVKGRFTISRDNSKSTLYLQMNSLRAEDTAMYYCVKVGANWGWRYFDLWGRGTLVTVSS
VL: DIVMTQTPLSLSVTPGQPASISCKSSQSLLHSDGNTYLSWYLQKPGQSPQLLIYEVSSRFSGVPDRFSGSGSGTDFTLKISRVEADDVGVYYCMQGIHSWTFGQGTKVEIK
B4: MGU1 (antibody, V domains shown)
VH: QVQLVESGGGVVQPGRSLRLSCAASGFAFSSYGMNWVRQAPGKGLEWVAVIWHDGTNKYYRDSVKGRFIISRDNAKNTLYLQMDSLSAEDTAMYYCAIWYLDSPDHGFDIWGRGTMVTVSS
VL: QLVLTQSPSASASLGVSVTLTCTLNNGHSSNAIAWHQQQPGKGPRYLMKVNSDGSHNKGAAVPDRFSGSSSGTERHLTISSLQSDDEADYYCQAWDSGIWVFGGGTKLTVL
B5: MGU12 (antibody, V domains shown)
VH: QVQLVESGGGVVQPGRSLRLSCAASGFSFSSYGMHWVRQAPGKGPEWVAVIWHDGSYSYYADSVRGRFTISRDNSKNTLYLQMNSLRPEDTGMYHCVKVEDYVRGSSHGGAFHIWGQGTMVTVSS
VL: DIQMTQSPSTLSASVGDRVTITCRASQTINNWLAWYQWKPGKAPELLIYKASSLESGVPSRFSGSGSGTEFTLTISSLQPDDFATYYCQQYSSYWTFGQGTKVDIK
B6: MGH1 (antibody, V domains shown)
VH: QVQLVQSGAEVKKPGASVRVSCKTSGYTFTDYYVHWVRQAPGHGLECMGWINPYIGVSKYAQKFQGRVTLTRDTSISTAYMEISRLTSDDTAVYYCAACSNVGCYVYWGQGSLVTVSS
VL: DVVMTQSPLSLPVTLGQPASISCRSSQSLVYSDGNTYLNWFQQRPGQSPRRLIYKVSNRDSGVPDRFSGSGSGTDFTLKISRVEAEDVAIYFCMQGTHWPDTFGQGTKLEIK
B7: MGU3 (antibody, V domains shown)
VH: EVLLVESGGGLVQPGGSLRLSCAASGFTFSDYNMHWVRQAPGKGLEWLSYISHSSSTTYYADSVRGRFTISRDNAKNSLYLQMNSLRAEDTAVYYCARLRPLSYSGRYRDYWGQGTLVTVSS
VL: DIQMTQSPSSLSASVGDRVTITCQASQDVSNYVNWYQQKPGKAPKVLIYDASTLQTGVPSRFSGSGSGTDFTFSISSLQPEDIATYYCQQYDSLPLTFGGGTKVEIK
B8: MGG4 (antibody, V domains shown)
VH: QVQLVESGGGVVQPGRSLRLSCAASGFRFSDYGMHWVRQAPGKGLEWVALIWYDGSNESYLDSVKGRFTISRDNSKNTLYLQMNNLRTEDTAVYYCAKLLVGITTDVFDVWGQGTVVTVSS
VL: DIVMTQSPDSLAVSLGERATINCRSSQSVLSSSNNKNYLAWYQHKPRQPPKLLIYWASTRESGVPDRFSGSGSGTDFTLTISSLQAEDVAVYYCQQYYTASPFFGGGTKVEIK
B9: MGG8 (antibody, V domains shown)
VH: EVQLVESGGGLVQPGGSLKLSCAASGFMISGSVLHWVRQASGKGLEWLGRIRDKANNEATAYAASVKGRFTISRDDSKDTTYLQMNSLRIEDTAVYYCTRGIIVGDTWHFDPWGQGTLVTVSS
VL: DIVMTQTPLSLSVTPGQTASISCKSSESLLRSDGKTYLYWYLQKPGQSPQLLMYEVSKRFSGVPDRFSGSGSGTDFTLKISRVETDDVGIYYCMQSIQLVTFGQGTKVEIK
B10: MGV3 (antibody, V domains shown)
VH: EVQVVESGGDLVQPGGSLRLSCAVYGFTVSDSYMSWVRQAPGKGLEWVSVIYSGSSTYYIDSVKGRFTISRDRSKNTLYLQMNTLRVEDTALYYCARGPNDYRNRKYYYYMDVWGKGTAVTVSS
VL: EIVLTQSPDTLSLSAGERVTLSCRASQSVDSPYLAWYQQRPGQTPRLLIFGASIRATDIPDRFSGGGSGTDFTLTISRLEPEDSGVYYCHQYGNAPYIFGQGTKLEIK
notes: also called biotin-labeled MGV3; biotinylated MGV3
B11: MGG2 (antibody, V domains shown)
VH: EVQLVESGGGLVQPGGSLRLSCAASGFTLNNYWMHWVRQAPGKGLVWVAHINIDGSTTTYADSVKGRFTISRDNAKNTLYLQMNSLRAEDTAVYYCAKGSIKAGGFWSGYSNWFDPWGQGTLVTVSS
VL: QAVVTQEPSLTVSPGGTVTLTCDSDPGPVTSGHYPYWFQQKPGQVPRTLIYDTSNKHSWTPARFSGSLLGGKAALTLSGAQPEDEADYYCLLSYGGAPVFGGGTKLTVL
B12: MGH2 (antibody, V domains shown)
VH: QVQLVESGGGVVQPGGSLRLSCTASGFSFSSYAMHWVRQAPGKGLEWVAYTRYDGSNKFYLDSVQGRFTISRDNSKNTLYLEMDSLRLEDTAVYFCAKVGDGTVAGTIDYWGQGTLVTVSS
VL: YIVMTQSPLSLPVTLGQPASISCRSSQSLVYSDGNTYLNWYQQRPGQSPRRLIYKVSNRDSGVPDRFSGSGSGTDFTLKISRVEAEDVGVYYCMQGTHWWTFGQGTKVEIK
B13: MGH3 (antibody, V domains shown)
VH: EVQLVESGGGLVKPGGSLRLSCAASGFTFSSYTMNWVRQAPGKGLEWVSSISSSGSYIYYADSVKGRCTISRDNAKNSLDLQMNSLRAEDAAVYYCARNVLDSSGYPTYFDYWGQGTLVTVSS
VL: DIVMTQSPLSLPVTPGEPASISCRSSQSLLYSNGYNYLDWYVQKPGQSPRLLIYLGSNRASGVPDRFSGSGSGTDFTLRISRVEAEDVGFYYCMQAVQTPLTFGGGTKVEIK
B14: MGG1 (antibody, V domains shown)
VH: EVQLVESGGGVVRPGGSLRLSCAASGFTFDDYAMSWVRQAPGKGLEWVSGINWNGGSTGYADSVKGRFTISRDNAKNSLYLQMNSLRAEDTALYHCARLGRAAREYYYYYMDVWGKGTTVTVSS
VL: QSVLTQPPSVSAAPGQKVTISCSGSSSNIGNNYVSWYQQLPGTAPKLLIYDNNKRPSGIPDRFSGSKSGTSATLGITGLQTGDEADYYCGTWDSSLSAGVFGGGTKLTVLG
B15: MGU10 (antibody, V domains shown)
VH: QVQLVESGGGVVQPGRSLRLSCAASGFAFSNYGMNWVRQAPGKGLEWVAVIWHDGSLKYYTQSVKGRFTISRDNAKNTLFLQMDSLSADDTAMYYCTVWYLETPDDGFDIWGRGTMVTVSS
VL: B4 VL with S7P, N25S, N26H, S29T, N31K, N57T, S70T, T73A, L77F, S81N
B16: MGU11 (antibody, V domains shown)
VH: QVQLVESGGGVVQPGRSLRLSCVASGFSFSSYGMHWVRQAPGKGLEWVAVIWYDGTNKYYADSVKGRFTISRDNTKNTLYLQMNSLRADDTAMYYCANDIAGWGYDGSNAWGQGTLVTVSS
VL: LSLPVTPGQPASISCKSSQSLVYSDGNTYLNWFQQRPGQSPRRLIYKVSNRDSGVPDRFSGSGSGTDFTLKISRVEAEDVGVYYCMQGTVGFTFGPGTTVDIK

The target of the first assay is T1, NPDP-peptide. The assay can be described thus: ELISA, peptide coated, titrated antibody. For orientation: An ELISA detects its analyte on a solid surface through an enzyme-linked reagent.
In general, EC50 refers to the midpoint of the concentration-response curve. Take B1: the EC50 is < 0.1 µg/mL.
With B2, the EC50 was < 0.1 µg/mL.
The same measure, in the same setting: then B3, with < 0.1 µg/mL.
On to B4, for which the binding result was “binds”.
Consider B5, for which the EC50 is < 0.1 µg/mL.
Turning to B6, the binding result is given as “binds”.
For the molecule B7, the binding result is given as “no binding”.
B8: the EC50 was < 0.1 µg/mL.
Take B9: the binding result is recorded as “binds”.
As to B10, the binding result is “binds”.
Regarding B11, the binding result is listed as “binds”.
As for B12, the half-maximal effective concentration (EC50) is < 0.1 µg/mL.

Another assay concerns the target T2, NANP-peptide. Briefly: ELISA, peptide coated, titrated antibody.
In the case of B13, the binding result is on record as “binds”.
Turning to B4, the binding result is “binds”.
For B6, the binding result was “binds”.
Same read-out and setting: then B7, with “no binding”; and B9, with “binds”.
On the same count and under the same terms, then B10, with “no binding”.
The same measure, in the same setting: then B11, with “binds”.

The target in another assay is T3, 22-110-peptide. Briefly: ELISA, peptide coated, titrated antibody.
With B4, the binding result is given as “binds”.
Still for that read-out and setting: then B6, with “binds”.
Same read-out and setting: the same measure for B14: “binds”.
For the molecule B7, the binding result is “no binding”.
Same read-out and setting: the same measure for B9: “binds”; for B10: “binds”.
The same measure, in the same setting: the same measure for B11: “binds”.

Another assay addresses T4, CSP C-terminal peptide 282-383 (Plasmodium falciparum).
T4 construct: Coated at 1 ug/ml in ELISA; also called C-terminus of CSP
The assay can be described thus: ELISA, C-terminal peptide 282-383 coated at 1 ug/ml.
For the molecule B1, the binding result is given as “no binding”.
On the same count and under the same terms, the same measure for B2: “no binding”; for B3: “no binding”.
Still for that read-out and setting: the same measure for B13: “no binding”; for B4: “no binding”.
On the same count and under the same terms, then B15, with “no binding”; and B5, with “no binding”.
As for B6, the binding result is given as “no binding”.
For B14, the binding result is given as “no binding”.
In the case of B16, the binding result is “no binding”.
Turning to B8, the binding result is “no binding”.
On the same count and under the same terms, then B9, with “no binding”; and B10, with “no binding”; and B11, with “no binding”.
B12: the binding result is recorded as “no binding”.

A further assay deals with T4, CSP C-terminal peptide 282-383. Briefly: ELISA, peptide coated at 1 ug/ml, B cell supernatants from 1/3 to 1/648 dilution.
For B7, the binding result is on record as “binds”.
